Results from patent US10704056B2, “Constitutively active ABA receptor mutants” (The Regents of the University of California, priority 2011, dated 2020).

Columns and labels:
ABI1 = target: T1, ABI1 (Arabidopsis thaliana, UniProt P49597); assay: In vitro PP2C phosphatase (pNPP) receptor activation assay with ABI1; type: biochemical; conditions: 600 nM PP2C, 0-4800 nM receptor, no ABA
T1 construct: Full length ABI1 and ABI2 were cloned into a modified pSUMO vector; made in house; host or cells: E. coli BL21 (DE3) pLysS
T1 sequence (P49597 1-434): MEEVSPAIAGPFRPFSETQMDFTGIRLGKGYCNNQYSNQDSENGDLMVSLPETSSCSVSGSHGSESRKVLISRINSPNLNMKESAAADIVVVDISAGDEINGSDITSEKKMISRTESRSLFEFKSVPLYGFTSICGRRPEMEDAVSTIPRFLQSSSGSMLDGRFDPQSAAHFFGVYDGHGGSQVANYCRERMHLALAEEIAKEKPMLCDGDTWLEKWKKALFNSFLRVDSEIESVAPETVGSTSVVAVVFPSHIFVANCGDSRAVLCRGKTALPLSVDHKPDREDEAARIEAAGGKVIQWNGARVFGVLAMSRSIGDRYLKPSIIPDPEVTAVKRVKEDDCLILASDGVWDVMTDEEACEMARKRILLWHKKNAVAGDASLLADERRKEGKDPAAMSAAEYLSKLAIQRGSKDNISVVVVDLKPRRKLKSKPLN
Description: Full length ABI1 and ABI2 were cloned into a modified pSUMO vector (LifeSensors Inc, USA) vector yielding 6×His-SUMO fusion proteins; GST-HAB1 was expressed and purified as previously described (Park et al., 2009). Mutant receptors were cloned into pET28 yielding 6×His-fusion proteins. […]. The cultures were pre-incubated 2 hours at 30° C. and, for PP2C expression, media was supplemented with 4 mM MnCl2 one hour after inoculation. After pre-incubation, IPTG was added (1 mM) and cells were induced at 15° C. for 16 hours, after which they were collected by centrifugation, resuspended in 5 ml Buffer A (50 mM NaH2PO4, 300 mM NaCl) +10 mM imidazole, pH 8.0 and stored at −80° C. For purification, cells were thawed, sonicated on ice (60 seconds) and a cleared lysate was then applied a 1 ml-bed volume column of Ni-NTA (Qiagen, USA), washed with 20 column volumes of Buffer A+30 mM imidazole and bound protein eluted with 1 ml of Buffer A+250 mM imidazole. For receptors, the elutate was dialyzed against TBS and for PP2Cs, fusion proteins were desalted by passage over a Sephadex G50 column.
The purified receptors and phosphatases were then used in receptor assays where receptor activation is indicated by inhibition of phosphatase activity, as inferred from initial reaction velocities for PP2C-mediated hydrolysis of the synthetic phosphatase substrate pNPP in reactions containing 600 nM PP2C and either 0, 600, 1200, 2400 or 4800 nM receptor. The receptor assay buffer consisted of 33 mM Tris-OAc, pH 7.9, 66 mM KOAc, 0.1% BSA, 25 mM Mn(OAc)2, 0.1%13-ME and 50 mM pNPP. Immediately after mixing proteins and substrates, reactions were monitored for hydrolysis of pNPP at A405 at ˜2 minutes intervals using a Wallac plate reader. Reaction progressions were plotted, initial velocities calculated and converted to specific activities by comparison to a standard curve for 4-nitrophenol made in the same buffer system. PP2C activity values shown in figures are expressed as %-control phosphatase activity levels, as measured under identical reaction conditions in the absence of receptor protein. The average specific activity level of GST-HAB1, 6×His-SUMO-ABI1 and 6×His-SUMO-ABI2 utilized in our experiments was 4500 (GST-PP2C) or 2500 (SUMO-PP2C) μmol/min/mg, when assayed using the phosphatase substrate pNPP in the absence of PYR1 or other receptors.

Columbia seeds = assay: Seed dormancy / germination assay of 35S-driven transgenic lines, stratified vs unstratified; type: in vivo, Arabidopsis; conditions: 35S-driven overexpression in wild-type Columbia background
Description: To investigate the effects of the PYL2^CA3 allele, we performed a number of physiological assays on wild-type and aba2-1 genotypes. Columbia (Col), 35S::PYL2, and 35S::PYL2^CA3 seed samples were divided into two portions; one portion was stratified on ⅓ MS plates for 6 days at 4° C. and the second portion was plated six days later ⅓ MS plates. Both samples were the transferred to room temperature (23° C.) and incubated in darkness. […] Each experiment was performed in triplicate and each point plotted represents the average of tests conducted using 40 to 70 seeds. […] Thus, overexpression of PYL2^CA3 activates the ABA-regulated seed dormancy pathway.
In order to assay dormancy of seeds for Columbia, 35S::GFP-PYL2, and 35S::GFP-PYL2^CA3 were divided into two portions and surface sterilized using chlorine gas (prepared in situ using bleach and HCl). One portion was stratified on ⅓ MS agar plates for 6 days at 4° C. in darkness and the second portion, which was maintained at room temperature, was seeded six days later on the ⅓ MS agar plates; both samples were transferred to a 23° C. light-tight growth chamber and germination scored at 24 hour periods. The homozygous 35S::GFP-PYL2 and 35S::GFP-[…] seeds used in these experiments were ˜5- and ˜6-months post-harvest respectively at the time of the experiment shown in FIG. 12.

B1: PYL2^CA3: PYL2 mutant (H65P, V87F, F165V); expressed in plants as 35S-driven GFP fusion (protein)
chain: HHHHHHMSSSPAVKGLTDEEQKTLEPVIKTYHQFEPDPTTCTSLITQRIHAPASVVWPLIRRFDNPERYKPFVKRCRLISGDGDVGSVREVTFISGLPASTSTERLEFVDDDHRVLSFRVVGGEHRLKNYKSVTSVNEFLNQDSGKVYTVVLESYTVDIPEGNTEEDTKMVVDTVVKLNLQKLGVAATSAPMHDDE
ABI1
  constitutive receptor activity on ABI1 in the absence of ABA: active towards multiple PP2Cs
Columbia seeds
  seed hyperdormancy (stratification dependent germination): induces a state of hyperdormancy in seeds
